Data on one molecule can be found in article PMC11376570, “Enhancing the therapeutic potential of P29 protein-targeted monoclonal antibodies in the management of alveolar echinococcosis through CDC-mediated mechanisms” (PLOS Pathogens, 2024).

Assay [1] has as its target T1, peptide 13 of the 45 overlapping peptides of rEgP29 (Echinococcus granulosus).
T1 construct: residues 61-75 of P29 of Echinococcus granulosus, one of 45 overlapping 15-mers (overlap of 10 residues); source: synthetic peptide
T1 chain: NIASKVADAFQKNKE
Description: ELISA; peptide scan by indirect ELISA; 45 overlapping 15-mer peptides of rEgP29 coated at 5 ug/mL; purified mAb at 1:5,000. The note with it: both partners purified. For orientation: ELISA stands for enzyme-linked immunosorbent assay.

For assay [2], the target named is T2, recombinant Echinococcus granulosus P29 (Echinococcus granulosus, UniProt Q9U8G7).
T2 construct: P29, 29 kDa antigen of Echinococcus granulosus, GenBank AAD53328.1; 238 amino acids by the BLAST comparison with E. multilocularis P29 (235/238); band at about 30 kDa on SDS-PAGE; also called rEgP29; rEg.P29
Nature of the assay: SPR; called SPR by the paper; mAb 4G10F4 (5 ug/mL) captured on the AMC probe, antigen P29 at 500, 250, 125, 62.5, 31.3 and 0 nM in PBST; Octet RH16 (Sartorius), Data Analysis 12.0. The note with it: both partners purified.

T2 sequence (Q9U8G7 whole entry): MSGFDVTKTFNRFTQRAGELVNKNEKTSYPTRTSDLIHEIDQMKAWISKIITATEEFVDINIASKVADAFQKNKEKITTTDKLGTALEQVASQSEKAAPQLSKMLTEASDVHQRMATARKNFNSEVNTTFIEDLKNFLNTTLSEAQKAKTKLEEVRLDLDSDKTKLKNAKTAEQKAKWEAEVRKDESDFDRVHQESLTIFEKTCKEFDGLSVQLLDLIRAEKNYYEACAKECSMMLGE

B1: 4G10F4 monoclonal antibody against rEgP29 (antibody, V domains shown)
VH: EVKLEESGPGLVAPSQSLSITCTVSGFSLFSYAVHWVRQPPGKGLEWLGVIWAGGSTDYNSALMSRLSISKDNSKSQVFLKMNSLQTDDTAMYYCASIHYYGYWHFDVWGAGTTVTVSS
VL: DIVMTQSPLSLPVSLGDQASISCRSSQSIVHSNGNTYLEWYLQKPGQSPKLLIYKVSNRFSGVPDRFSGSGSGTDFTLKISRVEAEDLGVYYCFQGSHVPYTFGGGTKLEIK
notes: Mouse IgG1 (subtype by ELISA); also called 4G10F4 mAb; anti-P29 mAb; source: mouse hybridoma (BALB/c splenocytes fused with Sp2/0), culture supernatant; also purified from serum-free supernatant (protein G column)
The Kd is the constant that tells how readily two partners part at equilibrium. The koff is the rate constant with which the complex falls apart. What is called kon is the second-order rate constant of association. Regarding B1, the binding result in assay [1] was “binds”. Further, in assay [2], the dissociation constant Kd was found to be 6.29 nM, the off-rate constant (koff) is 0.00049 s⁻¹ and the on-rate (kon) came out at 77800 M⁻¹ s⁻¹.
